Reference: article PMC11629065
One block for each molecule: values may come before it.

Columns and labels:
[1] = molecular target: IL1RL1 with the extracellular risk allele (rs1041973 [C]) and the TIR signalling domain risk haplotype (rs10192157 [C]) (human) (UniProt Q01638)
[2] = molecular target: IL1RL1 with the extracellular risk allele (rs1041973 [C]) and the protective TIR signalling domain haplotype (rs10192157 [T]) (human) (UniProt Q01638)
[3] = molecular target: IL1RL1 with the extracellular risk allele (rs1041973 [C]) and the TIR signalling domain risk haplotype (rs10192157 [C]) (human) (UniProt Q01638); remark: listed apart in the source

SEAP EC50 Risk:Prot (NF-κB SEAP reporter, transfected HEK293) [2]: 0.0712 nM
IL8 EC50 (IL8 ELISA of supernatant, transfected HEK293, risk:risk haplotype) [3]: 0.00117 nM
IL8 in supernatant (ELISA) of HEK293 reporter cells transfected with IL1RL1, IL33 0.0001-50 ng/mL, 24 h; IL8 ELISA maximum [3]: 24.6 pg/µL
SEAP EC50 Risk:Risk (NF-κB SEAP reporter, transfected HEK293) [3]: 0.0147 nM
SEAP activity (NF-κB reporter) in supernatant of HEK293 reporter cells transfected with IL1RL1, IL33 0.0001-50 ng/mL, 24 h; SEAP maximum (OD) [3]: 3.07 OD
B1: IL33_(109–270) (ligand)
chain: HDSSITGISPITEYLASLSTYNDQSITFALEDESYEIYVEDLKKDEKKDKVLLSYYESQHPSNESGDGVDGKMLMVTLSPTKDFWLHANNKEHSVELHKCEKPLPDQAFFVLHNMHSNCVSFECKTDPGVFIGVKDNHLALIKVDSSENLCTENILFKLSET

SEAP EC50 Risk:Prot (NF-κB SEAP reporter, transfected HEK293) [2]: 0.189 nM
IL8 EC50 (IL8 ELISA of supernatant, transfected HEK293, risk:risk haplotype) [3]: 1.58 nM
IL8 in supernatant (ELISA) of HEK293 reporter cells transfected with IL1RL1, IL33 0.0001-50 ng/mL, 24 h; IL8 ELISA maximum [3]: 37.8 pg/µL
SEAP EC50 Risk:Risk (NF-κB SEAP reporter, transfected HEK293) [3]: 0.0135 nM
SEAP activity (NF-κB reporter) in supernatant of HEK293 reporter cells transfected with IL1RL1, IL33 0.0001-50 ng/mL, 24 h; SEAP maximum (OD) [3]: 2.6 OD
B4: IL33_(113–270) (ligand)
chain: ITGISPITEYLASLSTYNDQSITFALEDESYEIYVEDLKKDEKKDKVLLSYYESQHPSNESGDGVDGKMLMVTLSPTKDFWLHANNKEHSVELHKCEKPLPDQAFFVLHNMHSNCVSFECKTDPGVFIGVKDNHLALIKVDSSENLCTENILFKLSET

SEAP EC50 Risk:Prot (NF-κB SEAP reporter, transfected HEK293) [2]: 0.2 nM
IL8 EC50 (IL8 ELISA of supernatant, transfected HEK293, risk:risk haplotype) [3]: 0.0698 nM
IL8 in supernatant (ELISA) of HEK293 reporter cells transfected with IL1RL1, IL33 0.0001-50 ng/mL, 24 h; IL8 ELISA maximum [3]: 24.6 pg/µL
SEAP EC50 Risk:Risk (NF-κB SEAP reporter, transfected HEK293) [3]: 0.0462 nM
SEAP activity (NF-κB reporter) in supernatant of HEK293 reporter cells transfected with IL1RL1, IL33 0.0001-50 ng/mL, 24 h; SEAP maximum (OD) [3]: 3.28 OD
B5: IL33_(112–270) (ABNOVA) (ligand)
chain: SITGISPITEYLASLSTYNDQSITFALEDESYEIYVEDLKKDEKKDKVLLSYYESQHPSNESGDGVDGKMLMVTLSPTKDFWLHANNKEHSVELHKCEKPLPDQAFFVLHNMHSNCVSFECKTDPGVFIGVKDNHLALIKVDSSENLCTENILFKLSET

The remaining lines, values behind:

Molecule: IL33 Exon 3,4 deletion variant (IL33_(Δ3,4)) (ligand)
IL8 in supernatant (ELISA) of HEK293 reporter cells transfected with IL1RL1; maximum as told in the text (differs from the table's cell) [1]: 28.1 pg/mL
SEAP EC50 Risk:Prot (NF-κB SEAP reporter, transfected HEK293) [2]: 0.0466 nM
IL8 EC50 (IL8 ELISA of supernatant, transfected HEK293, risk:risk haplotype) [3]: 1.5 nM
IL8 in supernatant (ELISA) of HEK293 reporter cells transfected with IL1RL1, IL33 0.0001-50 ng/mL, 24 h; IL8 ELISA maximum [3]: 28.1 pg/µL
SEAP EC50 Risk:Risk (NF-κB SEAP reporter, transfected HEK293) [3]: 0.0221 nM
SEAP activity (NF-κB reporter) in supernatant of HEK293 reporter cells transfected with IL1RL1, IL33 0.0001-50 ng/mL, 24 h; SEAP maximum (OD) [3]: 2.47 OD

B2: IL33_(95–270) (ligand)
chain: AFGISGVQKYTRALHDSSITGISPITEYLASLSTYNDQSITFALEDESYEIYVEDLKKDEKKDKVLLSYYESQHPSNESGDGVDGKMLMVTLSPTKDFWLHANNKEHSVELHKCEKPLPDQAFFVLHNMHSNCVSFECKTDPGVFIGVKDNHLALIKVDSSENLCTENILFKLSET
SEAP EC50 Risk:Prot (NF-κB SEAP reporter, transfected HEK293) [2]: 0.0427 nM
IL8 EC50 (IL8 ELISA of supernatant, transfected HEK293, risk:risk haplotype) [3]: 0.00074 nM
IL8 in supernatant (ELISA) of HEK293 reporter cells transfected with IL1RL1, IL33 0.0001-50 ng/mL, 24 h; IL8 ELISA maximum [3]: 49.7 pg/µL
SEAP EC50 Risk:Risk (NF-κB SEAP reporter, transfected HEK293) [3]: 0.00699 nM
SEAP activity (NF-κB reporter) in supernatant of HEK293 reporter cells transfected with IL1RL1, IL33 0.0001-50 ng/mL, 24 h; SEAP maximum (OD) [3]: 3.79 OD

B3: IL33_(99–270) (ligand)
chain: SGVQKYTRALHDSSITGISPITEYLASLSTYNDQSITFALEDESYEIYVEDLKKDEKKDKVLLSYYESQHPSNESGDGVDGKMLMVTLSPTKDFWLHANNKEHSVELHKCEKPLPDQAFFVLHNMHSNCVSFECKTDPGVFIGVKDNHLALIKVDSSENLCTENILFKLSET
SEAP EC50 Risk:Prot (NF-κB SEAP reporter, transfected HEK293) [2]: 0.0906 nM
IL8 EC50 (IL8 ELISA of supernatant, transfected HEK293, risk:risk haplotype) [3]: 29 nM
IL8 in supernatant (ELISA) of HEK293 reporter cells transfected with IL1RL1, IL33 0.0001-50 ng/mL, 24 h; IL8 ELISA maximum [3]: 42.9 pg/µL
SEAP EC50 Risk:Risk (NF-κB SEAP reporter, transfected HEK293) [3]: 0.0292 nM
SEAP activity (NF-κB reporter) in supernatant of HEK293 reporter cells transfected with IL1RL1, IL33 0.0001-50 ng/mL, 24 h; SEAP maximum (OD) [3]: 3.58 OD
